Test results reported in patent US20240228562A1 (Pieris, published 2024).
Changes are numbered by the printed parent chain.

T1: mouse CTGF (Abbexa) (mouse, UniProt P29268 26-348, limits assumed)
T1 construct: also called Murine CTGF; mCTGF
T1 sequence (looked up): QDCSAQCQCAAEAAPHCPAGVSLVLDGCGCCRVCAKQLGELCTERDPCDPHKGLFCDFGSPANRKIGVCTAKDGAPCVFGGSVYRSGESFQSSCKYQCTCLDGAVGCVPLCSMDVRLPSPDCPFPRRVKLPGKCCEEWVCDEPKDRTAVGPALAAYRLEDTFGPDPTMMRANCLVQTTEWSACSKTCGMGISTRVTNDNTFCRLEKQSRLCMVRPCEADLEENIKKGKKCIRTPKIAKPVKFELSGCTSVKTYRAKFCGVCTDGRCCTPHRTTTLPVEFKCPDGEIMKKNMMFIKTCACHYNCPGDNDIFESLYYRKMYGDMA

B1: lipocalin mutein of SEQ ID NO: 27 (designed binder)
chain: QDSTSDLIPAPPLSKVPLQQNFQDNQFQGKWYVVGLAGNYRLREDKDPSKMGATIYELKEDKSYDVTQVQFDDKKCLYVIETFVPGSQPGEFTLGAIKSYPGLTSQLVRVVSTNYNQHAMVFLKKVYGSEEYFHITLYGRTKELTSELKENFIRFSKSLGLPENHIVFPVPIDQCIDG
notes: also called hNGAL mutein; not shown: C-terminal His-tag
B2: lipocalin mutein of SEQ ID NO: 26 (designed binder)
chain: B1 chain with A96N, S99V, G102T, T104E, L123F, G128Q, S129N, E130R, Y132V, H134W
notes: as for B1
B3: lipocalin mutein of SEQ ID NO: 16 (designed binder)
chain: QDSTSDLIPAPPLSKVPLQQNFQDNQFQGKWYVVGLAGNAILRTDKQPAKMFATIYELKEDKSYDVTSVRFEAKSCVYTIKTFVPGSQPGEFTAGNIKSAPGQTSTLVRVVSTNYNQHAMVFFKHVSQNREFFVITLYGRTKELTSELKENFIRFSKSLGLPENHIVFPVPIDQCIDG
notes: as for B1
B4: lipocalin mutein of SEQ ID NO: 12 (designed binder)
chain: B3 chain with T44E, Q47Y, A73N, A94T
notes: as for B1
B5: lipocalin mutein of SEQ ID NO: 14 (designed binder)
chain: B3 chain with T44E, Q47Y, V77I, A94R, F132I
notes: as for B1
B6: lipocalin mutein of SEQ ID NO: 19 (designed binder)
chain: B3 chain with T44E, V77S, F123H, H125A, F132S
notes: as for B1
B7: lipocalin mutein of SEQ ID NO: 21 (designed binder)
chain: B3 chain with T44E, V77S, H125A, S127R, Q128G, N129A, F132S, V134N, T136A
notes: as for B1
B8: lipocalin mutein of SEQ ID NO: 11 (designed binder)
chain: B3 chain with T44E, V77S, I80S, F132T
notes: as for B1
B9: lipocalin mutein of SEQ ID NO: 18 (designed binder)
chain: B3 chain with L36I, T44D, Q47Y, A73N, V77I, A94H, A100H, F132I
notes: as for B1
B10: lipocalin mutein of SEQ ID NO: 13 (designed binder)
chain: B3 chain with T44E, Q47Y, A73N, I80S, A94T
notes: as for B1
B11: lipocalin mutein of SEQ ID NO: 30 (designed binder)
chain: QDSTSDLIPAPPLSKVPLQQNFQDNQFHGKWYVVGWAGNIKLREDKDPFKMSATIYELKEDKSYDVTEVVFEQKKCHYIIKTFVPGSQPGEFTLGDIKSPPGETSSLVRVVSTNYNQHAMVFFKKVFQNREFFWITLYGRTKELTSELKENFIRFSKSLGLPENHIVFPVPIDQCIDG
notes: also called optimized lipocalin mutein; hNGAL mutein
B12: lipocalin mutein of SEQ ID NO: 4 (designed binder)
chain: QDSTSDLIPAPPLSKVPLQQNFQDNQFHGKWYVVGRAGNNRLREDKDPPKMWATIYELKEDKSYDVTHVHFMTKKCRYIIDTFVPGSQPGEFTLGAIKSGPGMTSPLVRIVSTNYNQHAMVFFKWVNQNREWFTITLYGRTKELTSELKENFIRFSKSLGLPENHIVFPVPIDQCIDG
notes: as for B11

molecular target: T1, mouse CTGF (Abbexa); test: SPR (Biacore)
Description: (§1) The binding of exemplary lipocalin muteins to human (Creative Biomart), cynomolgus, rat (R&D Systems) and mouse CTGF (Abbexa) was determined by SPR using a Biacore instrument (Cytiva, formerly GE Healthcare). Some targets were fused to a human IgG1 Fc tag, and captured via the anti-human IgG antibody kit, others were directly immobilized.
(§2) For some measurements, human CTGF with a human IgG1 Fc Tag or rat or murine CTGF without a tag were directly immobilized to a CM5 Chip. The carboxyl groups on the chip were activated using 1-ethyl-3-(3-dimethylaminopropyl)-carbodiimide (EDC) and N-hydroxysuccinimide (NHS). […] Residual non-reacted NHS-esters were blocked by passing a solution of 1 M ethanolamine across the surface. The reference channel was activated/deactivated. For the capture setting, targets with an IgG Fc Tag at 0.25-2.5 μg/mL in HBS-EP+ buffer were captured by the anti-human IgG-Fc antibody at the chip surface for 180 s at a flow rate of 10 μL/min.
(§3) The binding assay was carried out with a contact time of 180 s, a dissociation time of 900-3600 s and a flow rate of 30 μL/min. All measurements were performed at 25° C. […] For the directly immobilized targets, the same regeneration conditions were used. Prior to the protein measurements, three startup cycles were performed for conditioning purposes.

| Kd [nM] | koff [s⁻¹] | kon [M⁻¹ s⁻¹] | Binder |
| --- | --- | --- | --- |
| 4.16 | 0.000172 | 41400 | B1 |
| 5.89 | 0.000208 | 35300 | B2 |
| 0.393 | 6.34e-05 | 161000 | B3 |
| 1.41 | 0.000128 | 91400 | B4 |
| 0.369 | 7.03e-05 | 190000 | B5 |
| 0.273 | 2.54e-05 | 93200 | B6 |
| 0.173 | 3.94e-05 | 228000 | B7 |
| 1.02 | 8.19e-05 | 80100 | B8 |

molecular target: T2, recombinant human CTGF-Fc protein (Creative Biomart) (human); test: SPR (Biacore)
T2 construct: Bought; also called human CTGF with a human IgG1 Fc Tag
Description: as §1, §2, §3

T2 sequence (chain, as listed by the source limits assumed): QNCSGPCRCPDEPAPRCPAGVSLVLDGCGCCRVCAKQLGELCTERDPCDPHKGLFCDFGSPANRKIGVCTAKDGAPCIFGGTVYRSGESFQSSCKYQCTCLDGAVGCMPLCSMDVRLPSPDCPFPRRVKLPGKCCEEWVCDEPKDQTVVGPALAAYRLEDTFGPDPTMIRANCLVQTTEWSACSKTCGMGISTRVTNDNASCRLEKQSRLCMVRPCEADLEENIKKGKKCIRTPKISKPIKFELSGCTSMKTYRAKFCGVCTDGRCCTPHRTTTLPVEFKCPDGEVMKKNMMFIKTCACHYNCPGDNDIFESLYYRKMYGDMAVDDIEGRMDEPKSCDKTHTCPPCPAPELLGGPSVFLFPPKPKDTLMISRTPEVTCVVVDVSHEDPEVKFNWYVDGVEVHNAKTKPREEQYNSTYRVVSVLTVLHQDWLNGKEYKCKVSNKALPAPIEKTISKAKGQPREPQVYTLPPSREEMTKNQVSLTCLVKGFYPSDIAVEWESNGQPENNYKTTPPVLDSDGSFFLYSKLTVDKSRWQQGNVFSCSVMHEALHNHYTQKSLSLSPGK

| Kd [nM] | koff [s⁻¹] | kon [M⁻¹ s⁻¹] | binding result | Binder |
| --- | --- | --- | --- | --- |
| 0.802 | 2.45e-05 | 30500 |  | B1 |
| 1.32 | 3.06e-05 | 23200 |  | B2 |
| 0.76 | 7.02e-05 | 92300 |  | B3 |
| 2.4 | 0.000133 | 55600 |  | B4 |
| 0.523 | 5.34e-05 | 102000 |  | B5 |
| 0.918 | 5.2e-05 | 56600 |  | B6 |
| 0.074 | 3.05e-06 | 40900 |  | B9 |
| 0.049 | 2.51e-06 | 51000 |  | B10 |
| 0.523 | 6.63e-05 | 127000 |  | B7 |
| 2.44 | 0.000108 | 44400 |  | B8 |
|  |  |  | binds | B11 |
|  |  |  | binds | B12 |
